The test addresses T1, CD20 (human, UniProt P11836 1-297).
T1 construct: whole, on cells; also called CD20-positive Ramos cell line; Ramos cells
T1 sequence (looked up): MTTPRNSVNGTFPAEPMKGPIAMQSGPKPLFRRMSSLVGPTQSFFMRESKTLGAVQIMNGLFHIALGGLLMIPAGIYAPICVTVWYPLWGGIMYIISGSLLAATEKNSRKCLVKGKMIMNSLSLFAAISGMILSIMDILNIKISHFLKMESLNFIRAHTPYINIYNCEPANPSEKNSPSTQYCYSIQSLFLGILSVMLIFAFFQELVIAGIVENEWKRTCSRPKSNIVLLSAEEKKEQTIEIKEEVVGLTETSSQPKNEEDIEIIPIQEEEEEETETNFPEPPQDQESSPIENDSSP
The experiment in a line: saturation binding of radiolabeled antibody to Ramos cells (10^7 cells), nonlinear regression.

Description: Avidity was determined using saturation binding experiments that measure specific binding of radiolabeled mAb or fusion protein (0.025-50 ng/ml) at equilibrium in the presence of excess antigen (10⁷ cells). Nonspecific binding was determined in the presence of excess cold mAb or fusion protein (50 μg/ml). […] The equilibrium dissociation constant (Kd) was calculated from nonlinear regression analysis of nM bound vs. nM radioligand using immunoreactivity-adjusted antibody concentrations.
Kd and Kₐ were calculated using nonlinear regression analysis of nM bound vs. nM radioligand.

B1: B9E9 mAb (antibody, V domains shown)
VH: QVQLVQSGAELVKPGASVKMSCKASGYTFTSYNMHWVKQTPGQGLEWIGAIYPGNGDTSYNQKFKGKATLTADKSSSTAYMQLSSLTSEDSAVYYCARAQLRPNYWYFDVWGAGTTVTVSS
VL: DIVLSQSPAILSASPGEKVTMTCRASSSVSYMHWYQQKPGSSPKPWIYATSNLASGVPARFSGSGSGTSYSLTISRVEAEDAATYYCQQWISNPPTFGAGTKLELK
modifications: Used unlabelled, fluorescein-labelled (FACS tracer) and radiolabelled (avidity assay).
notes: also called divalent B9E9 antibody; murine anti-CD20 antibody B9E9
By Kd is commonly meant the concentration at which binding is half-saturated. Low readings indicate a tighter complex, high ones a looser complex. For the molecule B1, the Ka came out at 1.02e+08 M⁻¹ and binding was put at a Kd of 9.75 nM.

The values above are taken from US20030103948A1 (NEORX, published 2003).
